From article doi:10.1101/2020.08.03.234229 (bioRxiv, 2020)

Biological target: T1, TSEN15 tryptic fragment (residues 23 to 170) (human, UniProt Q8WW01 23-170)
T1 sequence (looked up): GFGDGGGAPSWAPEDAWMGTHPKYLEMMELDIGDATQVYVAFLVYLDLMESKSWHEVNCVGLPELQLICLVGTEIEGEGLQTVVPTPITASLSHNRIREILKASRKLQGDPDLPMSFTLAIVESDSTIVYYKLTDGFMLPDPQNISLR
Experiment: SEC

- binding result: binds
B1: TSEN34 tryptic fragment (residues 208 to 310) (domain or fragment, human, UniProt Q9BSV6 208-310, looked up)
chain: DWPHAGRPAHELRYSIYRDLWERGFFLSAAGKFGGDFLVYPGDPLRFHAHYIAQCWAPEDTIPLQDLVAAGRLGTSVRKTLLLCSPQPDGKVVYTSLQWASLQ
